Data as given in PMC11718114.

Assays:
[1] = target: PI3Kα: p110α(2-1068) W1057A/I1058A/F1059A + p85(322-600) (human) (UniProt P42336); assay: ITC; GMPPNP-bound RAS (300–500 μM) in the syringe, PI3K isoform or PI3Kα-RBD (30–50 μM) in the cell; 25 °C; 20 mM HEPES pH 7.4, 150 mM NaCl, 5 mM MgCl2, 1 mM TCEP; one set of sites; duplicates
PI3Kα-RBD-T208A (human) = PI3Kα-RBD-T208A (human) (UniProt P42336); assay: ITC; RAS GTPase (GMPPNP-bound, 300–500 μM) in the syringe, PI3K isoform or PI3Kα-RBD (30–50 μM) in the cell; 25 °C; 20 mM HEPES pH 7.4, 150 mM NaCl, 5 mM MgCl2, 1 mM TCEP; one set of sites; two replicates
[2] = target: PI3Kδ: p110δ(1-1044) + p85(322-600) (human) (UniProt O00329); assay: ITC; GMPPNP-bound RAS (300–500 μM) in the syringe, PI3K isoform or PI3Kα-RBD (30–50 μM) in the cell; 25 °C; 20 mM HEPES pH 7.4, 150 mM NaCl, 5 mM MgCl2, 1 mM TCEP; one set of sites; duplicates
[3] = target: p110α-RBD(157-289) K206A (human) (UniProt P42336); assay: as above
[4] = target: p110α-RBD(157-289) K210A (human) (UniProt P42336); assay: as above
[5] = target: p110α-RBD(157-289) T208A (human) (UniProt P42336); assay: as above
[6] = target: PI3Kα-RBD, PIK3CA-RBD(157-289) (human) (UniProt P42336); assay: as above
PI3Kα-RBD-K206A (human) = PI3Kα-RBD-K206A (human) (UniProt P42336); assay: ITC; RAS GTPase (GMPPNP-bound, 300–500 μM) in the syringe, PI3K isoform or PI3Kα-RBD (30–50 μM) in the cell; 25 °C; 20 mM HEPES pH 7.4, 150 mM NaCl, 5 mM MgCl2, 1 mM TCEP; one set of sites; two replicates
PI3Kα-RBD-K210A (human) = PI3Kα-RBD-K210A (human) (UniProt P42336); assay: as above
PI3Kα-RBD-Q205A (human) = PI3Kα-RBD-Q205A (human) (UniProt P42336); assay: as above
PI3Kα-RBD-S231A (human) = PI3Kα-RBD-S231A (human) (UniProt P42336); assay: as above
[7] = target: PI3Kα-RBD, PIK3CA-RBD(157-289) (human) (UniProt P42336); assay: as above

| Kd [7] [µM] | stoichiometry N [7] [sites] | Substance | further results |
| --- | --- | --- | --- |
| – | – | MRAS (wild type) (from UniProt O14807 1-178) (domain or fragment) | Kd [1]: 5.3 µM; dH [1]: -17 kcal/mol |
| – | – | MRAS, GMPPNP-bound (from UniProt O14807 1-178) (domain or fragment) | Kd (PI3Kα-RBD-T208A (human)): 19.5 µM; stoichiometry N (PI3Kα-RBD-T208A (human)): 0.93 sites |
| – | – | RRAS2 (wild type) (from UniProt P62070 1-179) (domain or fragment) | Kd [1]: 3.9 µM; dH [1]: -17 kcal/mol; Kd [2]: 14 µM; fold reduction in affinity against wild-type p110α-RBD [3]: 15 fold; fold decrease in affinity against wild-type p110α-RBD [4]: 5 fold; fold decrease in affinity against wild-type p110α-RBD [5]: 5 fold |
| – | – | RRAS2 T52R (from UniProt P62070 1-179) (domain or fragment) | fold reduction in binding affinity against wild-type RRAS2 [6]: 7 fold |
| – | – | RRAS2, GMPPNP-bound (from UniProt P62070 1-179) (domain or fragment) | Kd (PI3Kα-RBD-K206A (human)): 107 µM; stoichiometry N (PI3Kα-RBD-K206A (human)): 0.92 sites; Kd (PI3Kα-RBD-K210A (human)): 41.7 µM; stoichiometry N (PI3Kα-RBD-K210A (human)): 0.81 sites; Kd (PI3Kα-RBD-Q205A (human)): 8.2 µM; stoichiometry N (PI3Kα-RBD-Q205A (human)): 0.86 sites; Kd (PI3Kα-RBD-S231A (human)): 8.3 µM; stoichiometry N (PI3Kα-RBD-S231A (human)): 0.88 sites; Kd (PI3Kα-RBD-T208A (human)): 45 µM; stoichiometry N (PI3Kα-RBD-T208A (human)): 0.9 sites |
| 66.9 | 1.2 | RRAS2-D42A, GMPPNP-bound (from UniProt P62070 1-179) (domain or fragment) | – |
| 16.1 | 0.89 | RRAS2-D42E, GMPPNP-bound (from UniProt P62070 1-179) (domain or fragment) | – |
| 28.2 | 0.81 | RRAS2-D44A, GMPPNP-bound (from UniProt P62070 1-179) (domain or fragment) | – |
| 32.4 | 0.92 | RRAS2-E48A, GMPPNP-bound (from UniProt P62070 1-179) (domain or fragment) | – |
| 12.4 | 0.83 | RRAS2-E74A, GMPPNP-bound (from UniProt P62070 1-179) (domain or fragment) | – |
| 21.5 | 1.11 | RRAS2-F75A, GMPPNP-bound (from UniProt P62070 1-179) (domain or fragment) | – |
| 6.4 | 0.75 | RRAS2-G23D, GMPPNP-bound (from UniProt P62070 1-179) (domain or fragment) | – |
| 12.8 | 0.91 | RRAS2-G23V, GMPPNP-bound (from UniProt P62070 1-179) (domain or fragment) | – |
| 134 | 1.2 | RRAS2-M78A, GMPPNP-bound (from UniProt P62070 1-179) (domain or fragment) | – |
| 14.2 | 0.85 | RRAS2-Q72H, GMPPNP-bound (from UniProt P62070 1-179) (domain or fragment) | – |
| 8.5 | 0.88 | RRAS2-Q72L, GMPPNP-bound (from UniProt P62070 1-179) (domain or fragment) | – |
| 6.4 | 0.9 | RRAS2-R63A, GMPPNP-bound (from UniProt P62070 1-179) (domain or fragment) | – |
| 28.5 | 1.01 | RRAS2-T52R, GMPPNP-bound (from UniProt P62070 1-179) (domain or fragment) | – |
| 4.3 | 0.92 | RRAS2-Y38F, GMPPNP-bound (from UniProt P62070 1-179) (domain or fragment) | – |
